These results are taken from patent publication US20240181006A1, “POLYPEPTIDES BINDING ADAMTS5, MMP13 AND AGGRECAN” (Merck Patent GmbH, priority 2017, published 2024).

In one assay the target is T1, guinea pig ADAMTS5 (Cavia porcellus, UniProt H0VFP0).
T1 sequence (H0VFP0 21-906): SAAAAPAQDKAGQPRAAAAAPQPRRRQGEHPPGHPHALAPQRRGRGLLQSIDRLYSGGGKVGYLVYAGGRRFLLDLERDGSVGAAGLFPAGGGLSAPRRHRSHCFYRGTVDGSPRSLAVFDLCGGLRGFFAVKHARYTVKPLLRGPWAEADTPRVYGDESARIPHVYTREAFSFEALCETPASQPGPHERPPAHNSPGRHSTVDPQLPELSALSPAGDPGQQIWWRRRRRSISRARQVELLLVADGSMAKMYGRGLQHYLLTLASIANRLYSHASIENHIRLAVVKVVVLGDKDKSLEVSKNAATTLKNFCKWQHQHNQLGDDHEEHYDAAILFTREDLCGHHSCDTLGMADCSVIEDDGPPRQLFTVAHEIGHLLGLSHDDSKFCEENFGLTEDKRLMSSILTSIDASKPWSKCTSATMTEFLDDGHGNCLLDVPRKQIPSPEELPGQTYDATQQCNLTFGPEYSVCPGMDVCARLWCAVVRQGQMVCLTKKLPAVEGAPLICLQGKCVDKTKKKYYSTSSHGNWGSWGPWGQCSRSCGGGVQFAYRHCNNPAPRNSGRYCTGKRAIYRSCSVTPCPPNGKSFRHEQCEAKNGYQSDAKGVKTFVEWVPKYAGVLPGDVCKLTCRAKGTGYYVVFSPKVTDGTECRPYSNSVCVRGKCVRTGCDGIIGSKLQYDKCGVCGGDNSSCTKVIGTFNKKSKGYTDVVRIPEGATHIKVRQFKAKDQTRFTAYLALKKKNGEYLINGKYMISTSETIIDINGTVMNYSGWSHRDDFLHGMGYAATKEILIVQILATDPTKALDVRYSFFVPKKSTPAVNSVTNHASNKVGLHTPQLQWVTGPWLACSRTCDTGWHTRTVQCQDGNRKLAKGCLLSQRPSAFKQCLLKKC
The experiment in a line: SPR-based off-rate analysis, guinea pig ADAMTS5. The format is binding. Particulars: Experiment 1. The procedure: (§1) Species cross-reactivity was initially evaluated via SPR-based off-rate analysis on a Biacore T100 instrument. Polypeptides were tested for binding to human, cynomolgus monkey (“cyno”), guinea pig, mouse, and bovine ADAMTS5. To this end, recombinant ADAMTS5 was immobilized onto a CM5 chip via amine coupling using EDC and NHS. Purified ISVD 02F03 was injected for 2 minutes at a concentration of 100 nM and allowed to dissociate for 15 min at a flow rate of 45 μl/min. Off-rate for each individual ADAMTS5 was determined by fitting a 1:1 interaction model (Langmuir model) onto the individual dissociation curves using the BIA Evaluation software. As a reference, off-rates on human ADAMTS5 were determined in each experiment.

The target of the next assay is T2, mouse ADAMTS5 (Mus musculus, UniProt Q9R001).
T2 sequence (Q9R001 262-930): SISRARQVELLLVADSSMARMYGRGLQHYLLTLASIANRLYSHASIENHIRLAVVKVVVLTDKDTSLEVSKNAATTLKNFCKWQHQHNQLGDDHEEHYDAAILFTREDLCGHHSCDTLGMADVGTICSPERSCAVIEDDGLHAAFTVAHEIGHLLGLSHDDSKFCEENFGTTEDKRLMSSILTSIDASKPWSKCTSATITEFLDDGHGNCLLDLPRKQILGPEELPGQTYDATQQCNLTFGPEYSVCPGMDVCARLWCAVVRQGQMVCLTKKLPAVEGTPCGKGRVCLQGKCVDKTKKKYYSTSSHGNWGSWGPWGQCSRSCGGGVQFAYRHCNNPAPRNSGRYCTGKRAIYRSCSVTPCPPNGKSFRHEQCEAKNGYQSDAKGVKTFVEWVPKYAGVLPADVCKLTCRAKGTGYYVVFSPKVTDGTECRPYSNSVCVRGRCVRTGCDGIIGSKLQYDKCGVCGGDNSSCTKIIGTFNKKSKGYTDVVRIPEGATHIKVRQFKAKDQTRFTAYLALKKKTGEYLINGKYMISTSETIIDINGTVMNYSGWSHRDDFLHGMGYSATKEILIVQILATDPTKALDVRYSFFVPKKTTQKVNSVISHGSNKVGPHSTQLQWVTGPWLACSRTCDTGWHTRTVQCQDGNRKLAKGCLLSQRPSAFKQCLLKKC
As to the kind of experiment: SPR-based off-rate analysis, mouse ADAMTS5. The format is binding. The settings on record: Experiment 2. The protocol:
as §1

B1: ISVD 02F03: immunoglobulin single variable domain which specifically binds ADAMTS5 (protein)
VHH: EVQLVESGGGVVQPGGSLRLSCAASGRTVSSYAMGWFRQAPGKEREFVAGISRSAERTYYVDSLKGRFTISRDNSKNTVYLQMNSLRPEDTALYYCAADLDPNRIFSREEYAYWGQGTLVTVSS
modifications: Description of Artificial Sequence: Synthetic anti-ADAMTS5 immunoglobulin single variable domain (ISVD)
Turning to B1, the “SPR based off-rate, kd, Guinea pig ADAMTS-5” value with guinea pig ADAMTS5 came to 3.4e-05 s⁻¹. In addition, in the assay with mouse ADAMTS5, the “SPR based off-rate, kd, Mouse ADAMTS-5” value came to 0.00029 s⁻¹.
